According to the supplement of paper PMC10567573:

B1: TMEM192 (parent)
chain: ILGKVILWILHLLLECYIQYHHSK
B2: C9orf9 (parent)
chain: TKHKCRQLTKASLKPRGCSKPPWR

Variants of: B1
Test: protein stability index of a GFP-peptide fusion (GPS, HEK-293T) (PSI 1-6); higher = more stable
Details: c terminus: a fixed tail appended
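Also: lentivirally expressed fusions sorted by FACS into six bins by GFP to DsRed ratio, PSI derived from sequencing read proportions per bin multiplied by bin number.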

Protein stability index: each site, then its substitutions
I6: W 2.72 | S 3.76 | C 2.94 | V 3.41 | E 2.55 | L 3.74 | Q 3.64 | A 1.4 | N 2.86 | P 2.73 | R 2.74 | Y 2.98 | T 3.07 | H 3.07 | K 3.39 | D 3.23 | M 2.24
L2: D 2.04 | N 2.93 | E 2.32 | V 3.54 | F 2.86 | A 2.41 | G 3.77 | R 2.75 | Y 2.77 | K 3.23 | H 1.91 | P 2.74 | W 2.18 | Q 2.41 | S 2.82 | T 3.29
K4: V 2.92 | F 3.11 | E 2.46 | W 2.93 | A 2.97 | G 3.12 | Y 2.87 | I 2.81 | N 2.98 | P 1.73 | L 3.75 | R 1.83 | M 3.11 | S 2.9 | D 3.04 | T 2.8 | H 4.67
W8: A 2.92 | S 3.6 | L 2.26 | I 2.08 | Y 2.98 | R 2.25 | P 2.6 | M 3.22 | T 3.65 | V 3.11 | E 2.47 | F 3.29 | K 2.89 | D 2.44 | G 2.02 | H 3.31 | N 3.71 | Q 2.89
I9: H 3.16 | Y 2.94 | V 3.3 | W 3.09 | D 2.89 | P 3.29 | T 4.05 | R 2.96 | N 4.27 | E 4.08 | G 1.96 | F 3.71 | C 2.61 | K 3.67 | Q 2.8 | L 2.68 | M 2.58
G3: F 2.9 | M 2.76 | R 3.69 | W 2.58 | L 2.76 | T 3.14 | V 2.32 | K 3.66 | I 2.58 | P 3.89 | D 3.06 | S 1.95 | Q 3.27 | E 2.62 | N 2.87 | H 2.67 | C 3.41 | Y 3.82
L10: M 3.36 | R 1.98 | I 3.22 | P 3.36 | C 1.5 | F 3.04 | T 2.19 | W 3.83 | V 2.85 | A 2.54 | K 1.75 | N 3.04 | S 2.3 | D 2.76 | E 5.03
V5: N 2.55 | P 1.85 | W 3.91 | Q 2.86 | G 3.88 | Y 4.62 | T 2.49 | F 2.7 | S 3.18 | D 3.49 | E 3.81 | A 2.85 | K 2.08 | C 2.73 | I 3.3 | H 2.2 | M 3.23 | R 2.43
I1: V 3.68 | R 2.92 | S 3.41 | M 3.36 | K 1.79 | T 3.49 | C 2.82 | Q 2.5 | D 2.93 | W 2.22 | P 2.56 | E 3.42 | L 3.4 | N 3.45 | H 2.88 | F 2.81 | G 3.43
L7: G 4.45 | Q 3.32 | P 1.85 | W 3.41 | T 3.57 | E 3.07 | N 2.51 | M 1.54 | K 2.36 | C 2.19 | V 1.74 | Y 2.85 | I 2.24 | H 2.6 | F 2.7 | S 3.17 | R 1.75 | D 2.86
H11: F 3.18 | G 2.09 | W 2.94 | R 3.16 | T 2.63 | P 3.26 | A 2.76 | I 3.89 | K 3.6 | N 2.91 | V 3.77 | Q 2.29 | M 4.49 | S 2.22 | C 3.27

Variants of: B2
Test: as above
Details: c terminus: a fixed tail appended

Protein stability index: each site, then its substitutions
G17: K 3.32 | H 2.76 | W 1.92 | P 2.08 | S 2.82 | R 3.03 | E 3.49 | I 2.86 | Y 2.52 | L 2.14 | F 2.23 | N 2.43 | A 2.83 | M 2.09 | C 1.83 | D 2.79 | Q 3.6 | T 2.78
P21: E 2.79 | V 3.09 | L 3.59 | M 2.64 | Q 3.48 | I 3.18 | K 2.76 | F 2.79 | W 2.28 | H 3.41 | T 2.56 | G 2.81 | D 2.93 | N 2.9 | Y 2.13 | C 2.36 | S 2.4
R24: I 1.43 | P 2.53 | K 3.63 | F 2.14 | S 2.18 | V 2.14 | E 3.22 | D 3.17 | Q 2.2 | Y 2.59 | L 1.72 | T 2.73 | M 2.57 | N 2.79 | H 2.82 | G 2.12 | A 2.95 | W 2.51 | C 1.99
R16: W 1.69 | Y 2.28
P22: A 2.97 | W 1.89 | R 2.51 | K 3.03 | N 2.32 | S 3.14 | C 1.83 | I 2.02 | D 2.38 | H 2.98 | G 3.09 | Y 2.62 | Q 2.99 | F 1.73 | E 2.98 | M 2.76 | T 3.03
K20: S 2.9 | L 2.3 | T 2.21 | I 2.37 | P 3.42 | H 2.76 | C 2.23 | F 2.32 | A 2.41 | D 1.92 | V 2.2 | R 3.14 | E 2.41 | W 1.94 | Y 3.56 | N 2.95 | M 1.76 | G 2.64 | Q 2.45
W23: Q 3.46 | F 2.67 | I 3.56 | N 4.32 | E 4.29 | P 4.18 | M 3.05 | A 3.89 | S 2.84 | C 2.89 | G 2.73 | L 3.72 | D 4.3 | K 4.63 | R 3.96 | T 3.93 | Y 3.86 | H 4.46 | V 3.28
S19: E 2.02 | Y 1.99 | C 2.36 | T 3.02 | Q 2.44 | I 2.08 | F 2.33 | D 2.77 | M 2.94 | A 1.5 | W 2.14 | R 3.63 | K 2.37 | P 1.92 | N 2.44 | G 2.21 | L 3.11 | V 3.35
C18: G 3.76 | S 1.35 | A 2.71 | V 2.1 | Y 2.18 | K 3.42 | N 3.22 | H 3.02 | F 2.69 | E 3.01 | P 3.32 | W 2.06 | Q 3.32 | T 3.11 | L 3.6 | I 2.2 | D 3.06 | M 2.58 | R 3.03
